This is an account of results in paper PMC4376794, “Production of Functional Human Vitamin A Transporter/RBP Receptor (STRA6) for Structure Determination” (PLoS ONE, 2015).

The target in test [1] is T1, retinol binding protein (His-RBP) (UniProt P02753 19-201). Kind of test: SPR; holo-RBP (retinol-loaded, 6.9-219.3 uM) flowed over STRA6-GFP captured by its c-Myc tag on immobilised anti-c-Myc antibody (CM5, Biacore 3000); anti-HA antibody reference cell; room temperature; steady-state responses fitted to one site plus a linear low-affinity component; triplicate. The settings on record: both partners purified. Background: In SPR one partner is held on a chip, and binding of the other changes the refractive index at the surface.

The target in test [2] is T1, retinol binding protein (His-RBP). Kind of test: SPR; apo-RBP (6.9-219.3 uM) flowed over STRA6-GFP captured by its c-Myc tag on immobilised anti-c-Myc antibody (CM5, Biacore 3000); anti-HA antibody reference cell; room temperature; steady-state responses fitted to one site plus a linear low-affinity component; triplicate. The settings on record: both partners purified.

B1: STRA6-GFP-c-Myc-His6 (STRA6-HRV3C-eGFP-Myc-His6) (receptor, human)
chain: MSSQPAGNQTSPGATEDYSYGSWYIDEPQGGEELQPEGEVPSCHTSIPPGLYHACLASLSILVLLLLAMLVRRRQLWPDCVRGRPGLPSPVDFLAGDRPRAVPAAVFMVLLSSLCLLLPDEDALPFLTLASAPSQDGKTEAPRGAWKILGLFYYAALYYPLAACATAGHTAAHLLGSTLSWAHLGVQVWQRAECPQVPKIYKYYSLLASLPLLLGLGFLSLWYPVQLVRSFSRRTGAGSKGLQSSYSEEYLRNLLCRKKLGSSYHTSKHGFLSWARVCLRHCIYTPQPGFHLPLKLVLSATLTGTAIYQVALLLLVGVVPTIQKVRAGVTTDVSYLLAGFGIVLSEDKQEVVELVKHHLWALEVCYISALVLSCLLTFLVLMRSLVTHRTNLRALHRGAALDLSPLHRSPHPSRQAIFCWMSFSAYQTAFICLGLLVQQIIFFLGTTALAFLVLMPVLHGRNLLLFRSLESSWPFWLTLALAVILQNMAAHWVFLETHDGHPQLTNRRVLYAATFLLFPLNVLVGAMVATWRVLLSALYNAIHLGQMDLSLLPPRAATLDPGYYTYRNFLKIEVSQSHPAMTAFCSLLLQAQSLLPRTMAAPQDSLRPGEEDEGMQLLQTKDSMAKGARPGASRGRARWGLAYTLLHNPTLQVFRKTALLGANGAQP
notes: human STRA6, full length (transcript variant 2); In SPR it was held by its C-terminal c-Myc tag on an anti-c-Myc antibody; also called vitamin A transporter/RBP receptor; RBP receptor; source: Pichia pastoris KM71H (pPICZ-A); on whole cells, in broken cells, and purified (solubilised in C12E9, Ni-NTA with exchange to DDM, size exclusion); not shown: GFP (eGFP), C-terminal, kept; c-Myc, …
Regarding B1, the Kd in test [1] was found to be 19.4 µM; in test [2], 22.4 µM.

As a reminder, the Kd is the constant that tells how readily two partners part at equilibrium.
